# Assays:
# [1] = biological target: neuraminidase (N2) of influenza A virus A/Victoria/361/2011 (H3N2) (influenza A virus A/Victoria/361/2011 (H3N2))
# [2] = biological target: neuraminidase (N1) of influenza A virus A/Hawaii/66/2019 (H1N1) (influenza A virus A/Hawaii/66/2019 (H1N1))
# [3] = biological target: neuraminidase (N2) of influenza A virus A/Michigan/173/2020 (H3N2) (influenza A virus A/Michigan/173/2020 (H3N2))
# [4] = biological target: neuraminidase (N1) of influenza A virus A/Illinois/45/2019 (H1N1) (influenza A virus A/Illinois/45/2019 (H1N1))
# [5] = biological target: recombinant N2 NA A/Hong Kong/2671/2019 (N245 glycan) (influenza A virus H3N2 A/Hong Kong/2671/2019)
# [6] = biological target: neuraminidase (N2) of influenza A virus A/HongKong/4801/2014 (H3N2) (influenza A virus A/HongKong/4801/2014 (H3N2))
# [7] = biological target: neuraminidase (N1) of influenza A virus A/Michigan/45/2015 (H1N1) (influenza A virus A/Michigan/45/2015 (H1N1))
# [8] = biological target: neuraminidase (N1) of influenza A virus A/Puerto Rico/1934 (H1N1) (influenza A virus A/Puerto Rico/8/34 (H1N1)) (UniProt P03468)
# [9] = biological target: neuraminidase (N2) of influenza A virus A/SouthAustralia/34/2019 (H3N2) (influenza A virus A/SouthAustralia/34/2019 (H3N2))
# [10] = biological target: neuraminidase of influenza B virus B/Phuket/3073/2013 (Yamagata) (influenza B virus B/Phuket/3073/2013 (Yamagata))
# [11] = biological target: neuraminidase of influenza B virus B/Utah/9/2014 (Yamagata) (influenza B virus B/Utah/9/2014 (Yamagata))
# [12] = biological target: neuraminidase (N2) of influenza A virus A/Cambodia/E0826360/2020 (H3N2) (influenza A virus A/Cambodia/E0826360/2020 (H3N2))
# [13] = biological target: neuraminidase of influenza B virus B/Colorado/6/2017 (Victoria) (influenza B virus B/Colorado/6/2017 (Victoria))
# [14] = biological target: neuraminidase of influenza B virus B/Washington/02/2019 (Victoria) (influenza B virus B/Washington/02/2019 (Victoria))
# [15] = biological target: neuraminidase (N2) of influenza A virus A/Tasmania/503/2020 (H3N2) (influenza A virus A/Tasmania/503/2020 (H3N2))
# [16] = biological target: neuraminidase (N1) of influenza A virus A/Victoria/2570/2019 (H1N1) (influenza A virus A/Victoria/2570/2019 (H1N1))
# [17] = biological target: neuraminidase of influenza B virus B/Laos/0080/2016 (Victoria) (influenza B virus B/Laos/0080/2016 (Victoria))
# [18] = biological target: neuraminidase of influenza B virus B/Texas/6/2011 (Yamagata) (influenza B virus B/Texas/6/2011 (Yamagata))
# [19] = biological target: neuraminidase (N2) of influenza A virus A/Kansas/14/2017 (H3N2) (influenza A virus A/Kansas/14/2017 (H3N2))
# [20] = biological target: neuraminidase of influenza B virus B/Brisbane/35/2018 (Victoria) (influenza B virus B/Brisbane/35/2018 (Victoria))
# [21] = biological target: neuraminidase (N2) of influenza A virus A/Darwin/6/2021 (H3N2) (influenza A virus A/Darwin/6/2021 (H3N2))
# [22] = biological target: neuraminidase of influenza B virus B/Brisbane/60/2008 (Victoria) (influenza B virus B/Brisbane/60/2008 (Victoria))
# [23] = biological target: neuraminidase (N1) of influenza A virus A/Idaho/07/2018 (H1N1) (influenza A virus A/Idaho/07/2018 (H1N1))
# [24] = biological target: recombinant N2 NA A/Hong Kong/2671/2019 (N245 glycan) (influenza A virus H3N2 A/Hong Kong/2671/2019); experiment: SPR
# [25] = biological target: neuraminidase of influenza B virus B/Lee/1940 (Ancestral) (influenza B virus B/Lee/1940 (Ancestral)) (UniProt P03474)
# Chain of UniProt P03474 (P03474 whole entry): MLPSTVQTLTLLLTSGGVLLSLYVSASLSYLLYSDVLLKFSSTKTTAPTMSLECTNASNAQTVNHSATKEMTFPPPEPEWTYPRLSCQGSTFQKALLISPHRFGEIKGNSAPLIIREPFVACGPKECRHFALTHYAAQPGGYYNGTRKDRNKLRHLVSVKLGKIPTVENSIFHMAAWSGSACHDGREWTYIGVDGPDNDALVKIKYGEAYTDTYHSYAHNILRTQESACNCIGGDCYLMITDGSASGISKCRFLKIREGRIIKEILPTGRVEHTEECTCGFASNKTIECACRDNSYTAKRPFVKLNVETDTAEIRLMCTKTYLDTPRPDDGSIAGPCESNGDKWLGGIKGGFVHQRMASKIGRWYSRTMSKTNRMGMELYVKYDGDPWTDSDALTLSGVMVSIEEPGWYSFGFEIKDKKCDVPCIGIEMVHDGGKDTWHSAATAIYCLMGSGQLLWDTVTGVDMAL
Substance,In vitro neutralization IC50; virus A/Victoria/361/2011 (H3N2); mAb as IgG [1] [µg/mL],In vitro neutralization IC50; virus A/Hawaii/66/2019 (H1N1); mAb as IgG [2] [µg/mL],In vitro neutralization IC50; virus A/Michigan/173/2020 (H3N2); mAb as IgG [3] [µg/mL],In vitro neutralization IC50; virus A/Illinois/45/2019 (H1N1); mAb as IgG [4] [µg/mL],In vitro neutralization IC50; virus A/HongKong/2671/2019 (H3N2); mAb as IgG [5] [µg/mL],In vitro neutralization IC50; virus A/HongKong/4801/2014 (H3N2); mAb as IgG [6] [µg/mL],In vitro neutralization IC50; virus A/Michigan/45/2015 (H1N1); mAb as IgG [7] [µg/mL],In vitro neutralization IC50; virus A/Puerto Rico/1934 (H1N1); mAb as IgG [8] [µg/mL],In vitro neutralization IC50; virus A/SouthAustralia/34/2019 (H3N2); mAb as IgG [9] [µg/mL],In vitro neutralization IC50; virus B/Phuket/3073/2013 (Yamagata); mAb as IgG [10] [µg/mL],In vitro neutralization IC50; virus B/Utah/9/2014 (Yamagata); mAb as IgG [11] [µg/mL],In vitro neutralization IC50; virus A/Cambodia/E0826360/2020 (H3N2); mAb as IgG [12] [µg/mL],In vitro neutralization IC50; virus B/Colorado/6/2017 (Victoria); mAb as IgG [13] [µg/mL],In vitro neutralization IC50; virus B/Washington/02/2019 (Victoria); mAb as IgG [14] [µg/mL],In vitro neutralization IC50; virus A/Tasmania/503/2020 (H3N2); mAb as IgG [15] [µg/mL],In vitro neutralization IC50; virus A/Victoria/2570/2019 (H1N1); mAb as IgG [16] [µg/mL],In vitro neutralization IC50; virus B/Laos/0080/2016 (Victoria); mAb as IgG [17] [µg/mL],In vitro neutralization IC50; virus B/Texas/6/2011 (Yamagata); mAb as IgG [18] [µg/mL],In vitro neutralization IC50; virus A/Kansas/14/2017 (H3N2); mAb as IgG [19] [µg/mL],In vitro neutralization IC50; virus B/Brisbane/35/2018 (Victoria); mAb as IgG [20] [µg/mL],other results
1G01 Fab,0.039,0.306,6.2,0.673,21.5,0.058,0.57,4.81,4.4,> 50,> 50,18.6,1.63,5.61,26.1,15.1,13.5,> 50,4.52,> 50,In vitro neutralization IC50; virus A/Darwin/6/2021 (H3N2); mAb as IgG [21]: > 50 µg/mL; In vitro neutralization IC50; virus B/Brisbane/60/2008 (Victoria); mAb as IgG [22]: > 50 µg/mL; In vitro neutralization IC50; virus A/Idaho/07/2018 (H1N1); mAb as IgG [23]: 0.293 µg/mL; Kd [24]: 375 nM
FNI9 Fab,0.082,0.039,3.09,0.243,0.073,0.022,0.151,0.028,0.76,0.193,0.245,1.61,0.669,0.031,2.01,0.168,0.047,0.104,0.284,0.026,In vitro neutralization IC50; virus B/Lee/1940 (Ancestral); mAb as IgG [25]: 0.051 µg/mL; In vitro neutralization IC50; virus A/Darwin/6/2021 (H3N2); mAb as IgG [21]: 1.13 µg/mL; In vitro neutralization IC50; virus B/Brisbane/60/2008 (Victoria); mAb as IgG [22]: 1.16 µg/mL; In vitro neutralization IC50; virus A/Idaho/07/2018 (H1N1); mAb as IgG [23]: 0.079 µg/mL; Kd [24]: 16 nM
FNI17 Fab,0.175,0.018,33.1,0.035,5.07,0.208,0.073,0.011,2.98,0.117,0.392,24.3,0.042,0.019,5.07,0.036,0.018,0.062,0.485,0.024,In vitro neutralization IC50; virus B/Lee/1940 (Ancestral); mAb as IgG [25]: 0.071 µg/mL; In vitro neutralization IC50; virus A/Darwin/6/2021 (H3N2); mAb as IgG [21]: > 50 µg/mL; In vitro neutralization IC50; virus B/Brisbane/60/2008 (Victoria); mAb as IgG [22]: 0.191 µg/mL; In vitro neutralization IC50; virus A/Idaho/07/2018 (H1N1); mAb as IgG [23]: 0.022 µg/mL; Kd [24]: 2100 nM
FNI19 Fab,0.091,0.021,1.77,0.039,0.19,0.122,0.062,0.012,1.11,0.222,0.391,1.47,1.17,0.063,1.18,0.071,0.029,0.229,0.559,0.02,In vitro neutralization IC50; virus B/Lee/1940 (Ancestral); mAb as IgG [25]: 0.211 µg/mL; In vitro neutralization IC50; virus A/Darwin/6/2021 (H3N2); mAb as IgG [21]: 2.79 µg/mL; In vitro neutralization IC50; virus B/Brisbane/60/2008 (Victoria); mAb as IgG [22]: 0.152 µg/mL; In vitro neutralization IC50; virus A/Idaho/07/2018 (H1N1); mAb as IgG [23]: 0.043 µg/mL; Kd [24]: 15.1 nM

# Reference: PMC10266979
